Data: US20220105194A1, “CONJUGATE COMPRISING LIGAND, SPACER, PEPTIDE LINKER, AND BIOMOLECULE” (ASTELLAS PHARMA INC., priority 2019, published 2022)

B1: [Gd/4arm-DOTA-CH2-(1,4-Ph)-NH—C(═S)—NH—CH2-(1,3-Ph)-C(═O)-Met-Gly-Lys*-Z2(#S)]p-Fab^2 (conjugate)
heavy: EVQLVESGGGLVQPGGSLRLSCAASGFNIRDTYMHWVRQAPGKGLEWVARIDPANGNSRYVPKFQGRFTISADTSRNTAYLQMNSLRAEDTAVYYCAPFGYYVSDYAMAYWGQGTLVTVSSASTKGPSVFPLAPSSKSTSGGTAALGCLVKDYFPEPVTVSWNSGALTSGVHTFPAVLQSSGLYSLSSVVTVPSSSLGTQTYICNVNHKPSNTKVDKKVEPKSCD
light: DIQLTQSPSSLSASVGDRVTITCRAGESVDIFGVGFLHWYQQKPGKAPKLLIYRASNLESGIPSRFSGSGSRTDFTLTISSLQPEDFATYYCQQTNEDPYTFGQGTKVEIKRTVAAPSVFIFPPSDEQLKSGTASVVCLLNNFYPREAKVQWKVDNALQSGNSQESVTEQDSKDSTYSLSSTLTLSKADYEKHKVYACEVTHQGLSSPVTKSFNRGEC
B2: [Gd/4arm-DOTA-CH2-(1,4-Ph)-NH—C(═S)-Gly-Phe-Lys*-Z2(#N)]p-Fab^2 (conjugate)
heavy: B1 heavy
light: B1 light
B3: [Gd/DOTA-NH—(CH2CH2O)3—CH2—C(═O)—NH—CH2-(1,3-Ph)-C(═O)-Met-Gly-Lys*-Z2(#N)]p-Fab^2 (conjugate)
heavy: B1 heavy
light: B1 light
B4: [Gd/DOTA-NH—CH2-(1,3-Ph)-C(═O)-Asp-Gly-Lys*-Z2(#N)]p-Fab^2 (conjugate)
heavy: B1 heavy
light: B1 light
B5: [Gd/DOTA-NH—(CH2CH2O)3—CH2—C(═O)—NH—CH2-(1,3-Ph)-C(═O)-Gly-Lys*—Z2(#N)]p-Fab^2 (conjugate)
heavy: B1 heavy
light: B1 light
B6: [Gd/DOTA-NH—CH2-(1,3-Ph)-C(═O)-Met-Gly-Lys*-Z2(#S)]p-Fab^2 (conjugate)
heavy: B1 heavy
light: B1 light
B7: [Gd/DOTA-NH—(CH2CH2O)3—CH2—C(═O)—NH—CH2-(1,3-Ph)-C(═O)-Met-Gly-Lys*-Z2(#S)]p-Fab^2 (conjugate)
heavy: B1 heavy
light: B1 light
B8: [Gd/DOTA-NH—CH2-(1,3-Ph)-C(═O)-Met-Gly-Lys*-Z2(#N)]p-Fab^2 (conjugate)
heavy: B1 heavy
light: B1 light
B9: ([Gd/DOTA-[2,5-(1,2,3,4-tetrahydroisoquinoline)]-C(═O)-Met-Gly-Lys*-C(═S)-NH-(1,4-Ph)-NH-C(═S)]p-Fab^5) (Fab, V domains shown)
VH: QVQLVQSGAEVKKPGASVKVSCKASGYTFTNYGLSWVRQAPGQGLEWMGENHPGSGIIYHNEKFRGRVTLTADRSTSTAYMELSSLRSEDTAVYYCARSSGTRGFDYWGQGTLVTVSS
VL: DVVMTQTPLSLSVTPGQPASISCRSSQSIVHSNGNTYLEWYLQKPGQSPQLLIYRVSNRFSGVPDRFSGSGSGTDFTLKISRVEAEDVGVYYCFQGSHGPWTFGQGTKLEIKR
modifications: labeling portion on p amino groups of the Fab; chain and sites not stated
B10: Ex-No 108, conjugate with Fab^5 that does not contain a peptide linker (structure only as drawing CHEM-US-00162) (Fab, V domains shown)
VH: B9 VH
VL: B9 VL
modifications: labeling portion on p amino groups of the Fab; chain and sites not stated
B11: ([Gd/DOTA-NH-CH2-(1,4-Ph)-NH-C(═O)-Met-Ile-NH-(CH2)2-Z1(#S)]p-Fab^5) (Fab, V domains shown)
VH: B9 VH
VL: B9 VL
modifications: labeling portion on p amino groups of the Fab; chain and sites not stated
B12: ([Gd/DOTA-NH-CH2-(1,4-Ph)-NH-C(═O)-Met-Ile-NH-(CH2)2-Z1(#N)]p-Fab^5) (Fab, V domains shown)
VH: B9 VH
VL: B9 VL
modifications: labeling portion on p amino groups of the Fab; chain and sites not stated
B13: [Gd/DOTA-NH—CH2-(1,4-Ph)-NH—C(═O)-Met-Ile-NH—(CH2)2—Z(#N)]p-Fab^2 (conjugate)
heavy: B1 heavy
light: B1 light
B14: Ex-No 10: (Y—S1—X)p-Fab^2: Y Gd/DOTA, S1 bond, X -Met-Ile-Lys*-Z2(#N)— (conjugate)
heavy: B1 heavy
light: B1 light
B15: [Gd/DOTA-NH—CH2-(1,4-Ph)-NH—C(═O)-Met-Ile-NH—(CH2)2-(A-4 and/or A-5)]p-Fab^5 (conjugate)
heavy: QVQLVQSGAEVKKPGASVKVSCKASGYTFTNYGLSWVRQAPGQGLEWMGENHPGSGIIYHNEKFRGRVTLTADRSTSTAYMELSSLRSEDTAVYYCARSSGTRGFDYWGQGTLVTVSSASTKGPSVFPLAPSSKSTSGGTAALGCLVKDYFPEPVTVSWNSGALTSGVHTFPAVLQSSGLYSLSSVVTVPSSSLGTQTYICNVNHKPSNTKVDKKVEPKSCD
light: DVVMTQTPLSLSVTPGQPASISCRSSQSIVHSNGNTYLEWYLQKPGQSPQLLIYRVSNRFSGVPDRFSGSGSGTDFTLKISRVEAEDVGVYYCFQGSHGPWTFGQGTKLEIKRTVAAPSVFIFPPSDEQLKSGTASVVCLLNNFYPREAKVQWKVDNALQSGNSQESVTEQDSKDSTYSLSSTLTLSKADYEKHKVYACEVTHQGLSSPVTKSFNRGEC
B16: [Gd/DOTA-NH—CH2-(1,4-Ph)-NH—C(═O)-Met-Ile-NH—(CH2)2-(A-3)]p-Fab^5 (conjugate)
heavy: B15 heavy
light: B15 light
B17: ([Gd/DOTA-NH-CH2-(1,4-Ph)-NH-C(═O)-Met-Ile-NH-(CH2)2-(A-4 and/or A-5)]p-Fab^5) (Fab, V domains shown)
VH: B9 VH
VL: B9 VL
modifications: labeling portion on p amino groups of the Fab; chain and sites not stated
B18: ([Gd/DOTA-NH-CH2-(1,4-Ph)-NH-C(═O)-Met-Ile-NH-(CH2)2-(A-3)]p-Fab^5) (Fab, V domains shown)
VH: B9 VH
VL: B9 VL
modifications: labeling portion on p amino groups of the Fab; chain and sites not stated

System: not listed separately
Assay: Example 4-1: kidney accumulation evaluation test of Gd-labeled conjugates (normal mice)
Conditions: about 24 hours, relative to control conjugate Ex-No 47
Procedure: A Gd-labeled conjugate of the conjugate containing a peptide linker produced in one of the above Examples was administered from the tail vein of mice (BALB/c or BALB/c nu/nu) so that the protein mass was 0.02 mg (100 μL) per animal. After about 24 hours, the mice were sacrificed and the kidneys were removed, and the amount of Gd in the kidneys was measured using ICP-MS. The present test was carried out in 3 cases in each group, the mean value of the 3 cases was calculated, and the amount of Gd contained per kidney after administration was shown as a percentage (% of dose/tissue) of the total amount of Gd administered.
Based on the percentage of the control conjugate (% of dose/tissue), the proportion of decrease in the amount of Gd contained in the kidneys of each of the conjugates having a peptide linker was determined and shown in Table 28.

Going from B1 to B2, the “Proportion of decrease (%) in the amount of Gd contained in the kidneys” value (“Proportion of decrease (%) … in the kidneys” below) falls from 72.9% to 68.0%.

System: not given
Assay: not given
Conditions: mouse, in vivo

Compared with B3, B4 is lower in “Proportion of decrease (%) … in the kidneys” value: 78.0% for the first, 52.2% for the second.

First: B5
Second: B6
The “Proportion of decrease (%) … in the kidneys” value of the first is lower: 44.8% for the first, 58.3% for the second.

Going from B7 to B8, the “Proportion of decrease (%) … in the kidneys” value falls from 77.4% to 50.3%.

Target: human cancer-specific MUC1 peptide (PTL 1) (human)
Assay: ELISA, immobilised MUC1 peptide (Example 6-2)
Conditions: not given

human cancer-specific MUC1 peptide (PTL 1) (human), sequence (main, as listed by the source): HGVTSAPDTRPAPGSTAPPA

Going from B9 to B10, the EC50 falls from 0.19 nM to 0.07 nM (2.7-fold).

B11 and B12 are within 1.5-fold of each other in EC50: 0.09 nM for the first, 0.08 nM for the second.

System: not given
Assay: not given
Design: species or system mice (BALB/c nu/nu)
Conditions: mouse, in vivo
Remark: another data set of the same source

For B3, the “Renal residual amount (cancer-bearing mice), % of dose/tissue” value was 8.40 % of dose/tissue.
In the case of B13, the “Renal residual amount (cancer-bearing mice), % of dose/tissue” value is reported as 5.77 % of dose/tissue.
For B6, the “Renal residual amount (cancer-bearing mice), % of dose/tissue” value was 12.33 % of dose/tissue.
In the case of B7, the “Renal residual amount (cancer-bearing mice), % of dose/tissue” value is reported as 9.40 % of dose/tissue.

Going from B3 to B13, the “Renal residual amount (cancer-bearing mice), Proportion of decrease (%)” value rises from 67.48% to 77.68%.

First: B6
Second: B7
The “Renal residual amount (cancer-bearing mice), Proportion of decrease (%)” value of the first is lower: 52.26% for the first, 63.61% for the second.

System: not given
Assay: not given
Design: species or system mice (BALB/c or BALB/c nu/nu)
Conditions: mouse, in vivo
Remark: another data set of the same source

In the case of B4, the “Renal residual amount (normal mice), % of dose/tissue” value is reported as 21.67 % of dose/tissue.
With B14 the “Renal residual amount (normal mice), % of dose/tissue” value was 20.10 % of dose/tissue.
For B13, the “Renal residual amount (normal mice), % of dose/tissue” value was 2.60 % of dose/tissue.

Compared with B4, B14 is higher in “Renal residual amount (normal mice), Proportion of decrease (%)” value: 26.12% for the first, 31.46% for the second.

With B13 the “Renal residual amount (normal mice), Proportion of decrease (%)” value was 91.13%.

System: not given
Assay: not given
Design: species or system mice (BALB/c or BALB/c nu/nu)
Conditions: mouse, in vivo
Remark: another data set of the same source

With B15 the “Renal residual amount (normal mice), % of dose/tissue” value was 2.30 % of dose/tissue.
For B16, the “Renal residual amount (normal mice), % of dose/tissue” value was 2.80 % of dose/tissue.

Target: human cancer-specific MUC1 peptide (PTL 1) (human)
Assay: ELISA, immobilised MUC1 peptide (Example 6-1)
Conditions: not given

Going from B17 to B18, the EC50 rises from 0.08 nM to 0.15 nM (1.9-fold). The first is the more potent here.

B10 gave an EC50 of 0.07 nM.
